± gives the standard deviation of the averaged measurements.
System: Saccharomyces cerevisiae
Experiment: protein stability index of tFT-peptide fusion (C-terminal peptide) (PSI (0-1 scale)); higher = more stable (slower turnover)
Conditions: temperature: 30 C
Method: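 MPS profiling in S. cerevisiae of the yeast C-terminome library: the last 12 aa of each annotated ORF are fused to the C-terminus of a sfGFP-mCherry timer, after a GGGS linker. Cells are FACS-sorted into 8 mCherry/sfGFP bins and deep-sequenced. PSI runs from 0 (unstable) to 1 (stable); wild type and das1Δ backgrounds, two technical replicates each.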

[1] = genetic background: das1 deletion

| Sequence | protein stability index [1] | protein stability index (genetic background: wild type) |
| --- | --- | --- |
| VDESWLPETYKK [IRC22 C-terminal 12 aa] | 0.7425 ± 0.0014 | 0.711 ± 0.022 |
| SVTSGSANFVFY [UTH1 C-terminal 12 aa] | 0.7081 ± 0.0034 | 0.7 ± 0.019 |
| TVSDGGSIFECS [RAD28 C-terminal 12 aa] | 0.7127 ± 0.0051 | 0.708 ± 0.06 |
| ATFFRYLSNIFT [AGP3 C-terminal 12 aa] | 0.723 ± 0.0077 | 0.698 ± 0.0078 |
| DTHTNEIIKKEI [HRQ1 C-terminal 12 aa] | 0.6984 ± 0.004 | 0.695 ± 0.032 |
| CEYGTNAIDALI [YER091C-A C-terminal 12 aa] | 0.7311 ± 0.0014 | 0.6917 ± 0.0036 |
| DKEVVYFDEWTI [RPC34 C-terminal 12 aa] | 0.726 ± 0.062 | 0.729 ± 0.032 |
| DFSASSSVEEVK [MFT1 C-terminal 12 aa] | 0.7088 ± 0.004 | 0.662 ± 0.011 |
| EETEAQAEPVEA [RPS3 C-terminal 12 aa] | 0.687 ± 0.013 | 0.663 ± 0.021 |
| KILTQHLQDLQS [RKM2 C-terminal 12 aa] | 0.6934 ± 0.0063 | 0.714 ± 0.077 |
| LADAGHLWHSIT [YNL120C C-terminal 12 aa] | 0.746 ± 0.02 | 0.6128 ± 0.00091 |
| KFDKPLYERLET [YNR014W C-terminal 12 aa] | 0.6855 ± 0.0028 | 0.651 ± 0.044 |
| DGTTSKDSEKKK [COA4 C-terminal 12 aa] | 0.708 ± 0.011 | 0.648 ± 0.011 |
| MVTNDGFGSTVL [YLR379W-A C-terminal 12 aa] | 0.698 ± 0.013 | 0.734 ± 0.029 |
| KQAQEGTKNLKI [PAC10 C-terminal 12 aa] | 0.714 ± 0.055 | 0.666 ± 0.029 |
| VKIATSILGKKL [PGS1 C-terminal 12 aa] | 0.68478 ± 0.00021 | 0.687 ± 0.025 |
| PGCVIENGTKLY [ADE57 C-terminal 12 aa] | 0.687 ± 0.012 | 0.71 ± 0.011 |
| TYSYTIDHPVLT [NUP100 C-terminal 12 aa] | 0.659 ± 0.021 | 0.659 ± 0.034 |
| ENKNWSIITPSG [YBL086C C-terminal 12 aa] | 0.68945 ± 7e-05 | 0.684 ± 0.018 |
| YLEHQQIHGRVV [YHR145C C-terminal 12 aa] | 0.679 ± 0.017 | 0.691 ± 0.013 |
| KVTSANEHTSAV [PEX27 C-terminal 12 aa] | 0.689 ± 0.011 | 0.697 ± 0.013 |

| Sequence | protein stability index [1] | protein stability index (genetic background: wild type) |
| --- | --- | --- |
| EVLDQLEPQDSS [MCM6 C-terminal 12 aa] | 0.699 ± 0.019 | 0.6847 ± 0.0064 |
| HEEVKHTADTVD [CDC37 C-terminal 12 aa] | 0.71118 ± 0.00024 | 0.67 ± 0.018 |
| ACDNSGLIGIFQ [VPS15 C-terminal 12 aa] | 0.723 ± 0.02 | 0.681 ± 0.069 |
| YDLEAGENKFNF [URA7 C-terminal 12 aa] | 0.7022 ± 0.0022 | 0.703 ± 0.0099 |
| GDENFVILEFEC [OAZ1 C-terminal 12 aa] | 0.7 ± 0.019 | 0.732 ± 0.036 |
| LFFQDIERFFSC [YMR194C-A C-terminal 12 aa] | 0.7717 ± 0.0042 | 0.7619 ± 0.0028 |
| KHCPYVFIPYVF [ERG4 C-terminal 12 aa] | 0.5262 ± 0.00096 | 0.273 ± 0.0033 |
| VKTLANEILNII [ECM11 C-terminal 12 aa] | 0.6687 ± 0.0062 | 0.711 ± 0.0092 |
| ACFVFSPSAMVT [BRP1 C-terminal 12 aa] | 0.6493 ± 0.0022 | 0.637 ± 0.028 |
| PNILLAFSYTAW [YNL170W C-terminal 12 aa] | 0.532 ± 0.017 | 0.5663 ± 0.0014 |
| ANRQCYVNGTKT [YDR250C C-terminal 12 aa] | 0.663 ± 0.0094 | 0.69065 ± 0.00059 |
| FSALMGESDDEE [TIF4631 C-terminal 12 aa] | 0.659 ± 0.019 | 0.678 ± 0.047 |
| TKGGNAGTKAYN [RTC3 C-terminal 12 aa] | 0.679 ± 0.011 | 0.666 ± 0.041 |
| KTHRSRSSRKGN [YMR135W-A C-terminal 12 aa] | 0.6834 ± 0.0026 | 0.704 ± 0.023 |
| ANLFSSKKKAKL [RSB1 C-terminal 12 aa] | 0.803 ± 0.058 | 0.822 ± 0.061 |
| TDYTRIIKMQSS [SWD1 C-terminal 12 aa] | 0.701 ± 0.013 | 0.251 ± 0.0049 |
| NGLWEQEKTEKR [YKR041W C-terminal 12 aa] | 0.716 ± 0.025 | 0.733 ± 0.061 |
| YNSDSGSYYTLM [YOR192C-C C-terminal 12 aa] | 0.704 ± 0.017 | 0.731 ± 0.097 |
| KAEASEAAHDEL [CPR5 C-terminal 12 aa] | 0.695 ± 0.0055 | 0.676 ± 0.038 |
| PLKFPLPLKPPL [YHL034W-A C-terminal 12 aa] | 0.715 ± 0.018 | 0.699 ± 0.022 |
| IVKIIRFNHASV [YHL048C-A C-terminal 12 aa] | 0.685 ± 0.016 | 0.658 ± 0.034 |

| Sequence | protein stability index [1] | protein stability index (genetic background: wild type) |
| --- | --- | --- |
| ATLINILLELFS [ECM27 C-terminal 12 aa] | 0.632 ± 0.014 | 0.63 ± 0.018 |
| DSFFFDVLAQLP [YLR434C C-terminal 12 aa] | 0.7357 ± 0.0072 | 0.686 ± 0.012 |
| STSDFELDDLED [YPL264C C-terminal 12 aa] | 0.6965 ± 0.0052 | 0.729 ± 0.026 |
| FLVNTTNKKESD [YIL092W C-terminal 12 aa] | 0.6861 ± 0.004 | 0.693 ± 0.024 |
| KNSNLSPTQIEL [SSK1 C-terminal 12 aa] | 0.7083 ± 0.0012 | 0.693 ± 0.024 |
| TFCRLCSHIQYF [YAL059C-A C-terminal 12 aa] | 0.7214 ± 0.006 | 0.694 ± 0.022 |
| TSPRNICTSLCV [SAL1 C-terminal 12 aa] | 0.66358 ± 0.00023 | 0.655 ± 0.038 |
| FAEYNRLSAIPV [LAM1 C-terminal 12 aa] | 0.447 ± 0.015 | 0.478 ± 0.02 |
| LWVTLLPEFTNF [YBR121C-A C-terminal 12 aa] | 0.768 ± 0.018 | 0.75 ± 0.029 |
| QIVGRYVVDTSK [ADH1 C-terminal 12 aa] | 0.6827 ± 0.0057 | 0.683 ± 0.015 |
| EDAEKRADEMDD [SRM1 C-terminal 12 aa] | 0.691 ± 0.034 | 0.675 ± 0.033 |
| HQFCEQKYVETI [RRT16 C-terminal 12 aa] | 0.7109 ± 0.0024 | 0.664 ± 0.0071 |
| LSKKTSGTHTTH [YBR182C-A C-terminal 12 aa] | 0.681 ± 0.015 | 0.6949 ± 0.005 |
| VHKFGWSLSFSP [POR2 C-terminal 12 aa] | 0.701 ± 0.017 | 0.681 ± 0.038 |
| PIKIIYNNKCPS [YLL006W-A C-terminal 12 aa] | 0.709 ± 0.02 | 0.688 ± 0.0074 |
| SLFPRDPKRLRP [DPS1 C-terminal 12 aa] | 0.7133 ± 0.0054 | 0.6987 ± 0.0031 |
| LTALLETVNKYR [GCG1 C-terminal 12 aa] | 0.7 ± 0.016 | 0.682 ± 0.014 |
| SPAHSFEKIQKI [ERF2 C-terminal 12 aa] | 0.692 ± 0.015 | 0.688 ± 0.029 |
| VQNLIAAVMGEL [PNP1 C-terminal 12 aa] | 0.7186 ± 0.002 | 0.664 ± 0.024 |
| LPQSTLQENQLS [SKN7 C-terminal 12 aa] | 0.706 ± 0.024 | 0.622 ± 0.028 |
| KLQPQVYKPWSL [RSC8 C-terminal 12 aa] | 0.6842 ± 0.0019 | 0.703 ± 0.0092 |

| Sequence | protein stability index [1] | protein stability index (genetic background: wild type) |
| --- | --- | --- |
| FIRKIYSAIKVE [TMN2 C-terminal 12 aa] | 0.385 ± 0.012 | 0.268 ± 0.016 |
| VKSSMGPAFRLY [RPL1A C-terminal 12 aa] | 0.6853 ± 0.0045 | 0.712 ± 0.046 |
| NDSDGTILIPDI [ZDS2 C-terminal 12 aa] | 0.6982 ± 0.0057 | 0.713 ± 0.041 |
| ISICILDLASHL [YBL071C C-terminal 12 aa] | 0.6703 ± 0.0038 | 0.669 ± 0.018 |
| LVSQRITGPGVF [ASI2 C-terminal 12 aa] | 0.687 ± 0.0099 | 0.681 ± 0.0099 |
| IDLIAFLRNGPL [GPR1 C-terminal 12 aa] | 0.737 ± 0.039 | 0.749 ± 0.088 |
| VPEEQRIKRRKI [IRC4 C-terminal 12 aa] | 0.705 ± 0.037 | 0.3 ± 0.035 |
| EFEILDAKKEKD [PIM1 C-terminal 12 aa] | 0.699 ± 0.0047 | 0.681 ± 0.056 |
| AQGKLIMNVEKF [AST1 C-terminal 12 aa] | 0.712 ± 0.05 | 0.689 ± 0.019 |
| QLQDLLSSENNK [AIM11 C-terminal 12 aa] | 0.7169 ± 0.0021 | 0.688 ± 0.032 |
| TSDHLFVVFFFW [YDL034W C-terminal 12 aa] | 0.327 ± 0.019 | 0.319 ± 0.035 |
| ATALSGHKANCN [MTQ1 C-terminal 12 aa] | 0.6878 ± 0.0049 | 0.6424 ± 0.0012 |
| YLTFYKSPKTFY [YDR183C-A C-terminal 12 aa] | 0.71 ± 0.037 | 0.637 ± 0.055 |
| IWKKVPETKRSG [VPS73 C-terminal 12 aa] | 0.707 ± 0.019 | 0.669 ± 0.022 |
| FGQDGCLYIYNQ [YHR045W C-terminal 12 aa] | 0.713 ± 0.015 | 0.698 ± 0.021 |
| KGVFWDPACVIA [MFA1 C-terminal 12 aa] | 0.731 ± 0.0082 | 0.713 ± 0.031 |
| NENDFNFINWEG [FLO8 C-terminal 12 aa] | 0.741 ± 0.037 | 0.7071 ± 0.0051 |
| IIEEKVRNYLNK [RIB5 C-terminal 12 aa] | 0.696 ± 0.061 | 0.685 ± 0.01 |
| KNLTRTSVSFIG [TRS85 C-terminal 12 aa] | 0.7307 ± 0.0033 | 0.702 ± 0.037 |
